# Data taken from the RNAGym collection of RNA variant scans (doi:10.1093/molbev/msab373).
# B1: Azoarcus group I ribozyme (parent)
# chain: GUGCCUUGCGCCGGGAAACCACGCAAGGGAUGGUGUCAAAUUCGGCGAAACCUAAGCGCCCGCCCGGGCGUAUGGCAACGCCGAGCCAAGCUUCGGCGCCUGCGCCGAUGAAGGUGUAGAGACUAGACGGCACCCACCUAAGGCAAACGCUAUGGUGAAGGCAUAGUCCAGGGAGUGGCGAAAGUCACACAAACCGG
# Variants of: B1
# Test: reverse-splicing fitness (ratio to wild type); higher = more active; in vitro selection; Mg2+ level not given
# Procedure, shortened: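 An in vitro group I ribozyme library with randomized positions was T7-transcribed and gel-purified. In triplicate, 10 pmol RNA in EPPS pH 7.5 was reacted with 50 pmoles of a 30-nt RNA substrate for 1 h at 37 °C across several added MgCl2 levels (1–48 mM), then stopped with EDTA. Products were reverse transcribed from a substrate-complementary primer, PCR-amplified and sequenced (HiSeq 4000). Fitness is a variant's read proportion after selection over that before, normalised to wild type.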
row,Variant,reverse-splicing fitness
1,C82G A111U C169U,0.0134
2,C82G A111U C169U U176A,0.0177
3,C82G A111U C169U U176C,0.0158
4,C82G A111U C169U U176G,0.00639
5,C82G A111U U176A,0.214
6,C82G A111U U176C,0.259
7,C82G A111U U176G,0.0695
8,C82G A120C,0.208
9,C82G A120C A145C,0.201
10,C82G A120C A145C C150A,0.0129
11,C82G A120C A145C C150A C169A,0.00726
12,C82G A120C A145C C150A C169A U176A,0.0154
13,C82G A120C A145C C150A C169A U176C,0.00645
14,C82G A120C A145C C150A C169A U176G,0.00522
15,C82G A120C A145C C150A C169G,0.00715
16,C82G A120C A145C C150A C169G U176A,0.0302
17,C82G A120C A145C C150A C169G U176C,0.0164
18,C82G A120C A145C C150A C169G U176G,0.0056
19,C82G A120C A145C C150A C169U,0.00799
20,C82G A120C A145C C150A C169U U176A,0.0134
21,C82G A120C A145C C150A C169U U176C,0.0101

row,Variant,reverse-splicing fitness
1,C82G A120C A145C C150A C169U U176G,0.0044
2,C82G A120C A145C C150A U176A,0.012
3,C82G A120C A145C C150A U176C,0.0118
4,C82G A120C A145C C150A U176G,0.0054
5,C82G A120C A145C C150G,0.0227
6,C82G A120C A145C C150G C169A,0.00926
7,C82G A120C A145C C150G C169A U176A,0.0101
8,C82G A120C A145C C150G C169A U176C,0.00752
9,C82G A120C A145C C150G C169A U176G,0.00496
10,C82G A120C A145C C150G C169G,0.00712
11,C82G A120C A145C C150G C169G U176A,0.0101
12,C82G A120C A145C C150G C169G U176C,0.00954
13,C82G A120C A145C C150G C169G U176G,0.00536
14,C82G A120C A145C C150G C169U,0.0101
15,C82G A120C A145C C150G C169U U176A,0.00765
16,C82G A120C A145C C150G C169U U176C,0.0116
17,C82G A120C A145C C150G C169U U176G,0.00406
18,C82G A120C A145C C150G U176A,0.00907
19,C82G A120C A145C C150G U176C,0.0144
20,C82G A120C A145C C150G U176G,0.00422
21,C82G A120C A145C C150U,0.0403

row,Variant,reverse-splicing fitness
1,C82G A120C A145C C150U C169A,0.008
2,C82G A120C A145C C150U C169A U176A,0.0117
3,C82G A120C A145C C150U C169A U176C,0.00587
4,C82G A120C A145C C150U C169A U176G,0.00525
5,C82G A120C A145C C150U C169G,0.00749
6,C82G A120C A145C C150U C169G U176A,0.0259
7,C82G A120C A145C C150U C169G U176C,0.013
8,C82G A120C A145C C150U C169G U176G,0.00532
9,C82G A120C A145C C150U C169U,0.0122
10,C82G A120C A145C C150U C169U U176A,0.0146
11,C82G A120C A145C C150U C169U U176C,0.00971
12,C82G A120C A145C C150U C169U U176G,0.00439
13,C82G A120C A145C C150U U176A,0.0221
14,C82G A120C A145C C150U U176C,0.0273
15,C82G A120C A145C C150U U176G,0.00925
16,C82G A120C A145C C169A,0.00704
17,C82G A120C A145C C169A U176A,0.0137
18,C82G A120C A145C C169A U176C,0.0062
19,C82G A120C A145C C169A U176G,0.00378
20,C82G A120C A145C C169G,0.00864
21,C82G A120C A145C C169G U176A,0.0262

row,Variant,reverse-splicing fitness
1,C82G A120C A145C C169G U176C,0.0161
2,C82G A120C A145C C169G U176G,0.00428
3,C82G A120C A145C C169U,0.0218
4,C82G A120C A145C C169U U176A,0.0152
5,C82G A120C A145C C169U U176C,0.0142
6,C82G A120C A145C C169U U176G,0.00352
7,C82G A120C A145C U176A,0.0678
8,C82G A120C A145C U176C,0.0842
9,C82G A120C A145C U176G,0.0157
10,C82G A120C A145G,0.21
11,C82G A120C A145G C150A,0.0297
12,C82G A120C A145G C150A C169A,0.0104
13,C82G A120C A145G C150A C169A U176A,0.0227
14,C82G A120C A145G C150A C169A U176C,0.0236
15,C82G A120C A145G C150A C169A U176G,0.00671
16,C82G A120C A145G C150A C169G,0.00895
17,C82G A120C A145G C150A C169G U176A,0.0184
18,C82G A120C A145G C150A C169G U176C,0.0256
19,C82G A120C A145G C150A C169G U176G,0.0054
20,C82G A120C A145G C150A C169U,0.0126
